Substrate in this data set: N=C(N)NCCC[C@H](N)C(=O)O
As to the kind of experiment: Km determination by Lineweaver-Burk plot analysis, citrulline formation assay. It is filed as biochemical, Mycoplasma arginini. The settings on record: other: purified enzyme from M. arginini, substrate L-arginine, pH 7.0. How it is done:
The activity of arginine deiminase can be determined by causing it to produce citrulline using the method reported by Fenske et. al. [J. Bacteriol. 126, 501-510 (1976)], and by measuring the amount of the yields using the method given by Archibald [J. Biol. Chem. 156, 121-142 (1944)].
Specifically, 20 μl of arginine deiminase solution is added to 1.0 ml of 10 mM arginine [dissolved in 0.1M phosphate buffer of pH 7.0], then an enzyme reaction is allowed to take place at 37° C. for 10 minutes, and the reaction is terminated by adding 1 ml of mixed acid solution (H2 SO4 :H3 PO4 =1:3). Then, the resultant reactive solution is added with 25 μl of 3% aqueous diacetylmonooxim solution, heated at 100° C. for 20 minutes under a light-shielded condition, left to cool under a room temperature for 30 minutes, and then the amount of the citrulline yield is measured quantitatively by measuring the absorbence at 490 nm. The activity of arginine deiminase producing 1 μmol of citrulline in one minute is defined as 1 unit.
v) Km value and Vmax value
By the Lineweaver-Burk plot analysis Km and Vmax were determined as 0.2 mM and 50 U/mg, respectively.

B1: Mycoplasma arginini (IFO 14476) arginine deiminase (EC 3.5.3.6), present invention, amino acid sequence of FIG. 4 (Mycoplasmopsis arginini) (protein)
chain: MSVFDSKFKGIHVYSEIGELESVLVHEPGREIDYITPARLDELLFSAILESHDARKEHKQFVAELKANDINVVELIDLVAETYDLASQEAKDKLIEEFLEDSEPVLSEEHKVVVRNFLKAKKTSRELVEIMMAGITKYDLGIEADHELIVDPMPNLYFTRDPFASVGNGVTIHYMRYKVRQRETLFSRFVFSNHPKLINTPWYYDPSLKLSIEGGDVFIYNNDTLVVGVSERTDLQTVTLLAKNIVANKECEFKRIVAINVPKWTNLMHLDTWLTMLDKDKFLYSPIANDVFKFWDYDLVNGGAEPQPVENGLPLEGLLQSIINKKPVLIPIAGEGASQMEIERETHFDGTNYLAIRPGVVIGYSRNEKTNAALEAAGIKVLPFHGNQLSLGMGNARCMSMPLSRKDVKW
notes: Arginine deiminase was purified from the M. arginini cell extract; endogenous in cells; host or cells: Mycoplasma arginini IFO 14476 cells (strain from the Institute for Fermentation, Osaka); enzyme purified in house by three chromatography steps
Take B1: the Km is 200 µM.
